Key:
[1] = target: recombinant His-tagged NS1 protein of West Nile virus strain IS-98-ST1 (NS1^WNV) (West Nile virus, strain IS-98-ST1); assay: negative-stain electron microscopy
[2] = target: recombinant His-tagged NS1 protein of West Nile virus strain IS-98-ST1 (NS1^WNV) (West Nile virus, strain IS-98-ST1); assay: SDS-PAGE without heat denaturation + Western blot

Work on “recombinant His-tagged NS1 protein of West Nile virus strain IS-98-ST1 (NS1^WNV) (natural protein)” yielded a stoichiometry N [1] of 6 and a stoichiometry N [2] of 2.
